Laboratory results from US20240216513A1, “FATTY ACID-BIFUNCTIONAL DEGRADER CONJUGATES AND THEIR METHODS OF USE” (Novartis AG, priority 2021, published 2024).

Tests used:
[1] = biological target: T1, BTK C481S (Homo sapiens, UniProt Q06187, C481S); assay: PD screen in TMD8 BTK C481S mutant tumor-bearing mice, BTK levels and compound concentrations in blood and tumor; format: in vivo, mouse
T1 construct: endogenous in cells; host or cells: TMD8 BTK C481S mutant tumour xenografts in mice
Description: All animal studies were conducted in accordance with ethics and procedures covered by permit nos. BS-1975 issued by the Kantonales Veterinäramt Basel-Stadt and in strict adherence to guidelines of the Eidgenössisches Tierschutzgesetz and the Eidgenössische Tierschutzverordnung, Switzerland. All animals had access to food and water ad libitum and were identified with transponders. They were housed in a specific pathogen-free facility with a 12-h light/12-h dark cycle. For PD screen experiments in TMD8 BTK C481S mutant tumor-bearing mice, FAC was injected once. Animals were randomized into groups of 2 and tissue samples collected at day 0, 4, 7 and in some studies day 10 as well. Blood samples were collected and tumors were excised, weighed, frozen in liquid nitrogen and cryogenic dry pulverized with the CryoPrep™ system (model CP-02, Covaris). Concentrations of compounds in blood and tumors were determined by UPLC/MS-MS and BTK levels were analyzed by Meso Scale Discovery.

[2] = In vivo pharmacokinetic study in rats (i.v. or s.c.), FAC and payload in blood; parameters: species or system rat
Description: (§1) Pharmacokinetic studies were conducted in male C57/B16 mice; male Sprague-Dawley rats; male Beagle dogs and male Cynomolgus monkeys. 3 animals per group were used for each study performed. All studies were performed in accordance with local animal welfare regulations.
(§2) […] Serial 30 µL blood samples were collected via venipuncture of the tail vein in mouse, and via the cannulated jugular vein in rats at defined timepoints to 216 hours (into EDTA coated tubes).
(§3) Each blood sample was precipitated with acetonitrile containing internal standard; samples were mixed and centrifuged (20 minutes 4000 RPM at 4° C.). Supernatant was transferred to a microwell plate and evaporated under nitrogen at 60° C. Residue was resuspended in acetonitrile/water (7:3 v/v); plate sealed and transferred to an ultrasonic bath for 3 minutes, prior to analysis. Quantification was performed by LC-MS/MS (SciexAP16500 Q-trap, Shimadzu Nexera X2) using a Phenomenex Polar RP analytical column (2.5 μm particle size; 50×2 mm). The mobile phase consisted of solvent A (0.1% formic acid in water) and solvent B (0.1% formic acid in acetonitrile). The fatty acid conjugate and API were detected using multiple reaction monitoring.
(§4) Data analysis and calculation of non-compartmental pharmacokinetic parameters was
(§5) performed using an in-house analysis. Following intravenous administration whole blood clearance was calculated by the dose administered divided by AUC0-inf. Volume of distribution at steady state was calculated as MRT*CL, where MRT is the mean residence time, calculated by AUMC0-inf/AUC0-inf. The half-life (t1/2) of the terminal elimination phase was calculated by 0.693/λ. For both intravenous and subcutaneous administration, the systemic exposures were determined by calculating the area under the blood concentration time curve (AUC) from time zero to the last observed quantifiable concentration (AUClast) by using the linear trapezoidal method and normalised to dose. Extrapolated AUC (AUC0-inf) is calculated by addition of AUClast and AUCtlast-inf; where AUCtlast-inf is calculated based on Clast/λ. The slope of the terminal elimination phase was estimated by linear regression of the terminal data points (minimum 3 points) from a natural log concentration versus time plot of the data. Bioavailability was calculated as the dose normalized ratio of […] AUCinf to intravenous AUCinf (100*[SC AUCinf/SC dose]/[IV AUCinf/IV dose]). Following subcutaneous administration Cmax is calculated as the average maximum observed peak concentration and Tmax is the time associated with the determined Cmax.
(§6) For PK experiments, non-tumor bearing mice or rats were treated once (10 mL/kg) with a compound either i.v. or s.c. Serial blood samplings from the tail vein (5-20 μl) were collected during the course of the experiment. For PK/PD experiments in tumor-bearing mice, compound was administered once (10 mL/kg) either i.v. or s.c. Animals were randomized into groups of n=3 and tissue samples were collected at several time points. At the times indicated, animals were anaesthetized by exposure to 2-3% v/v isoflurane in medical oxygen. They were sacrificed without recovering from anesthetic after blood sampling into commercially prepared EDTA coated tubes (Milian, cat #TOM-14C) in order to extract plasma. The tissues were excised, weighted and rapidly frozen in liquid nitrogen. Later, tumors were cryogenic dry pulverized with the CryoPrep™ system (model CP-02, Covaris). For efficacy experiments in ectopic tumor-bearing mice, animals were randomized into groups of n=6 for a mean tumor size of 100 mm^3 and compound was administered either i.v. q3w or s.c. q2w. When implanted in brain, animals were randomized into groups of n=4 for a mean bioluminescence of 1.0-2.0E+06 [p/s]/[ρW/cm^2] and compound was administered i.v. qw. Tumor response were reported with the measures of tumor volumes or bioluminescence from the treatment start. […]

[3] = BTK FAC plasma stability assay, PBS buffer arm; format: physicochemical; conditions: for Plasma stability (h) PBS: incubation to 24 h
Method in brief: (§7)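 Stability in PBS buffer or EDTA-treated plasma is followed over 24 h at 38 °C with shaking. Protein precipitation with acetonitrile (glyburide 0.2 µM as internal standard) stops each timepoint, and LC-MS/MS gives analyte-to-standard area ratios.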

[4] = BTK FAC plasma stability assay, rat plasma; format: in vitro ADME; conditions: for Plasma stability (h) rat: incubation to 24 h
Method in brief: as §7

[5] = BTK FAC plasma stability assay, mouse plasma; format: in vitro ADME; conditions: for Plasma stability (h) mouse: incubation to 24 h
Method in brief: as §7

[6] = In vivo pharmacokinetic study in Beagle dogs (i.v. or s.c.), FAC and payload in blood; parameters: species or system dog; conditions: for Payload C0-uM dog: analyte payload after FAC i.v. dose 1 umol/kg
Description: as §1
Between 1 and 10 µM/kg FAC was administered either intravenously or subcutaneously as a solution in 10 mM PBS with NaOH (dose volume 0.4 mL/kg in dog and monkey s.c. and 0.2 mL/kg i.v. in monkey). Serial 100 µL blood samples were collected via venipuncture of the cephalic vein at defined timepoints to 336 hours (into EDTA coated tubes).
as §3, §4, §5

[7] = BTK FAC plasma stability assay, dog plasma; format: in vitro ADME
[8] = BTK FAC plasma stability assay, cyno plasma; format: in vitro ADME, cynomolgus monkey
[9] = In vivo pharmacokinetic study in mice (i.v. or s.c.), FAC and payload in blood; parameters: species or system mouse; conditions: male, C57/B16, mouse, in vivo, iv; analyte FAC; FAC i.v. dose 10 umol/kg; read-out: FAC AUC-uM.h mouse
Description: as §1, §2, §3, §4, §5, §6

T1 sequence (Q06187 whole entry C481S): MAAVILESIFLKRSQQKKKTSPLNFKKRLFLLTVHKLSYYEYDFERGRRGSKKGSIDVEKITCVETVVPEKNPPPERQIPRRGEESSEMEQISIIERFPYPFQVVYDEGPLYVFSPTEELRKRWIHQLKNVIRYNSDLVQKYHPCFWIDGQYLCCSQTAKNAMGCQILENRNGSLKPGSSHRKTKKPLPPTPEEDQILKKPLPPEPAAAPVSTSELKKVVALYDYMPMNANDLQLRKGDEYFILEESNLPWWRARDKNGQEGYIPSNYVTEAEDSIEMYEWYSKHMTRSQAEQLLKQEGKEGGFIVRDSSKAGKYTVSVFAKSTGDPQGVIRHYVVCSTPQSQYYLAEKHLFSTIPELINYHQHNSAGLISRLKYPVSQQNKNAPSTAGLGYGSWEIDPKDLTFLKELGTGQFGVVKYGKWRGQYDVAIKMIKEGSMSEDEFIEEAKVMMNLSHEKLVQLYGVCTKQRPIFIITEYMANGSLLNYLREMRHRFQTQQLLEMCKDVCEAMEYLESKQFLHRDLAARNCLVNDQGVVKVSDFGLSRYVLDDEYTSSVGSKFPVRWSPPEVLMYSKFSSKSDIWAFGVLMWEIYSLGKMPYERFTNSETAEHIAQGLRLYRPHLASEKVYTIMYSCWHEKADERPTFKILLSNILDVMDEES

Compound | % Release of degrader after 24 h PBS [3] | Plasma stability (h) PBS [3] | % Release of degrader after 24 h rat [4] | Plasma stability (h) rat [4] | % Release of degrader after 24 h mouse [5] | Plasma stability (h) mouse [5] | Plasma stability (h) dog [7] | % Release of degrader after 24 h dog [7] | Payload C0-uM dog [6] | Plasma stability (h) cyno [8] | % Release of degrader after 24 h cyno [8] | further results
COc1ccc(C(=O)N2CCC3(CCN(CCc4ccc(-c5cc6c(-c7cc(F)cc(NC(=O)c8ccc(C(C)(C)OC(=O)CNC(=O)CCOCCOCCOCCOCCOCCOCCOCCOCCOCCOCCOCCOCCNC(=O)C(CCCCCCCCCCCCCCP(=O)(O)O)(CCCCCCCCCCCCCCP(=O)(O)O)C(=O)O)cc8F)c7C)ncnc6[nH]5)cc4)CC3)CC2)cc1N1CCC(=O)NC1=O [Example A28, 2-(4-((3-(6-(4-(2-(9-(3-(2,4-dioxotetrahydropyrimidin-1(2H)-yl)-4-methoxybenzoyl)-3,9-diazaspiro[5.5]undecan-3-yl)ethyl)phenyl)-7H-pyrrolo[2,3-d]pyrimidin-4-yl)-5-fluoro-2-methylphenyl)carbamoyl)-3-fluorophenyl)-2-methyl-4,7,47-trioxo-48,48-bis(14-phosphonotetradecyl)-3,10,13,16,19,22,25,28,31,34,37,40,43-tridecaoxa-6,46-diazanonatetracontan-49-oic acid] | – | – | – | – | – | – | – | – | – | – | – | Duration of BTK degradation in mouse ≥90% ([1]; i.v., 25 umol/kg): 10 days; Duration of BTK degradation in mouse ≥90% ([1]; s.c., 25 umol/kg): 10 days; C0 ([2]; analyte FAC, FAC i.v. dose 10 umol/kg, read-out: FAC C0-uM rat): 57 µM; Payload C0-uM Rat ([2]; analyte payload after FAC i.v. dose 10 umol/kg): 0.21 µM; AUC ([2]; male, Sprague-Dawley, rat, in vivo, iv, analyte FAC, FAC i.v. dose 10 umol/kg, read-out: FAC AUC-uM.h rat): 704 µM·h
CCCCCCCCCCCN(C(=O)CCCCCCCCCC(=O)O)C(CCC(=O)NCCOCCOCCOCCOCCOCCOCCOCCOCCOCCOCCOCCOCCC(=O)NCC(=O)OC(C)(C)c1ccc(C(=O)Nc2cc(F)cc(-c3ncnc4[nH]c(-c5ccc(CCN6CCC7(CC6)CCN(C(=O)c6ccc(OC)c(N8CCC(=O)NC8=O)c6)CC7)cc5)cc34)c2C)c(F)c1)C(=O)O (stereo not shown) [Example A1, 50-Carboxy-2-(4-((3-(6-(4-(2-(9-(3-(2,4-dioxotetrahydropyrimidin-1(2H)-yl)-4-methoxybenzoyl)-3,9-diazaspiro[5.5]undecan-3-yl)ethyl)phenyl)-7H-pyrrolo[2,3-d]pyrimidin-4-yl)-5-fluoro-2-methylphenyl)carbamoyl)-3-fluorophenyl)-2-methyl-4,7,47,52-tetraoxo-51-undecyl-3,10,13,16,19,22,25,28,31,34,37,40,43-tridecaoxa-6,46,51-triazadohexacontan-62-oic acid] | 1% | >48 h | 17.4% | 34.8 h | 15.1% | 28 h | >48 h | 14.6% | – | – | – | C0 ([6]; analyte FAC, FAC i.v. dose 1 umol/kg, read-out: FAC C0-uM dog): 27.2 µM; AUC ([6]; male, Beagle, dog, whole blood, iv, analyte FAC, FAC i.v. dose 1 umol/kg, read-out: FAC AUC-uM.h dog): 6.8 µM·h; C0 ([6]; male, Beagle, whole blood, sc, dog, subcutaneous dosing, FAC s.c. dose 1 umol/kg, read-out: FAC C0): 0.28 µM
CCCCCCCCCCCN(C(=O)CCCCCCCCCC(=O)O)C(CCC(=O)NCCOCCOCCOCCOCCOCCOCCOCCOCCOCCOCCOCCOCCC(=O)NCc1ccc(CC(=O)OC(C)(C)c2ccc(C(=O)Nc3cc(F)cc(-c4ncnc5[nH]c(-c6ccc(CCN7CCC8(CC7)CCN(C(=O)c7ccc(OC)c(N9CCC(=O)NC9=O)c7)CC8)cc6)cc45)c3C)c(F)c2)cc1)C(=O)O (stereo not shown) [Example A23, 46-Carboxy-1-(4-(2-((2-(4-((3-(6-(4-(2-(9-(3-(2,4-dioxotetrahydropyrimidin-1(2H)-yl)-4-methoxybenzoyl)-3,9-diazaspiro[5.5]undecan-3-yl)ethyl)phenyl)-7H-pyrrolo[2,3-d]pyrimidin-4-yl)-5-fluoro-2-methylphenyl)carbamoyl)-3-fluorophenyl)propan-2-yl)oxy)-2-oxoethyl)phenyl)-3,43,48-trioxo-47-undecyl-6,9,12,15,18,21,24,27,30,33,36,39-dodecaoxa-2,42,47-triazaoctapentacontan-58-oic acid] | 0.2% | >48 h | 1.1% | >48 h | 5.8% | >48 h | >48 h | 0.8% | 0.59 µM | >48 h | 0.6% | AUC [9]: 856 µM·h
CCCCCCCCCCCN(C(=O)CCCCCCCCCC(=O)O)C(CCC(=O)NCCOCCOCCOCCOCCOCCOCCOCCOCCOCCOCCOCCOCCC(=O)NC(C)(C)CC(=O)OC(C)(C)c1ccc(C(=O)Nc2cc(F)cc(-c3ncnc4[nH]c(-c5ccc(CCN6CCC7(CC6)CCN(C(=O)c6ccc(OC)c(N8CCC(=O)NC8=O)c6)CC7)cc5)cc34)c2C)c(F)c1)C(=O)O (stereo not shown) [Example A18, 51-Carboxy-2-(4-((3-(6-(4-(2-(9-(3-(2,4-dioxotetrahydropyrimidin-1(2H)-yl)-4-methoxybenzoyl)-3,9-diazaspiro[5.5]undecan-3-yl)ethyl)phenyl)-7H-pyrrolo[2,3-d]pyrimidin-4-yl)-5-fluoro-2-methylphenyl)carbamoyl)-3-fluorophenyl)-2,6,6-trimethyl-4,8,48,53-tetraoxo-52-undecyl-3,11,14,17,20,23,26,29,32,35,38,41,44-tridecaoxa-7,47,52-triazatrihexacontan-63-oic acid] | 0.6% | >48 h | 0.2% | >48 h | 0.8% | >48 h | >48 h | 0.3% | 0.3 µM | >48 h | 0.4% | Duration of BTK degradation in mouse ≥90% ([1]; i.v., 50 umol/kg): <4 days
